Test: yeast display, Sf9 membrane polyspecificity reagent, FACS + sequencing; frameworks hold sequencing errors
Summary of the method: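 Synthetic nanobody libraries on Saccharomyces cerevisiae BJ5465 were galactose-induced for 36–48 hours, stained 1 hour at 4 °C with 10% biotinylated, detergent-solubilized Sf9 membrane reagent and enriched on streptavidin microbeads. FACS then separated cells into low and high (top ~1%) gates by anti-HA (expression) and streptavidin (reagent binding) fluorescence. Genes were colony-PCR amplified, MiSeq 2 × 250 sequenced and CDR-length filtered. A clone's polyreactivity label is that of its gate of origin.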

Row | Sequence | polyreactivity (PSR sort gate)
1 | QVQLVESGGGLVQAGGSLRLSCAASGSIFYKNAMGWYRQAPGKERELVAAITYSGGSTYYADSVKGRFTISRDNAKNTVYLQMNSLKPEDTAVYYCAADIGVYGERREEEYDYWGQGTQVTVSS | low polyreactivity
2 | QVQLVESGGGLVQAGGSLRLSCAASGSIFYKYMGWNIQAPGKERELVAAISWSGGRTYYADSVKGRFTISRDNAKNTVYLQMNSLKPEDTAVYYCNRVVLWRIGDKAFEYWGQGTQVTVSS | high polyreactivity
3 | QVQLVESGGGLVQAGGSLRLSCAASGSIFYKYVMGWYRQAPGKERELVAAISRGGGSTYYADSVKGRFTISRDNAKNTVYLQMNSLKPEDTAVYYCNAVGRPRYGHGFDHWGQGTQVTVSS | high polyreactivity
4 | QVQLVESGGGLVQAGGSLRLSCAASGSIFYLYAMGWYRQAPGKERELVASIRWSGGNTYYADSVKGRFTISRDNAKNTVYLQMNSLKPEDTAVYYCAARTSTHGSSYSIRRFGYWGQGTQVTVSS | high polyreactivity
5 | QVQLVESGGGLVQAGGSLRLSCAASGSIFYNTMGWYRQAPGKERELVAAISGTRASTYYADSVKGRFTISRDNAKNTVYLQMNSLKPEDTAVYYCAAVPAYPRDYDYWGQGTQVTVSS | low polyreactivity
6 | QVQLVESGGGLVQAGGSLRLSCAASGSIFYNYAMGWYRQAPGKERELVATITRSDGSTYYADSVKGRFTISRENAKNTVYLQMNSLKPEDTAVYYCAADSGSTSEYEYWGQGTQGTVSS | low polyreactivity
7 | QVQLVESGGGLVQAGGSLRLSCAASGSIFYPNAMGWYRQAPGKEREFVAAITWNGDSTYYADSVKGRFTISRDNAKNTVYLQMNSLKPEDTAVYYCNTDGQGIYSYNKDLSWISGYDYWGQGTQVTVSS | low polyreactivity
8 | QVQLVESGGGLVQAGGSLRLSCAASGSIFYPNAMGWYRQAPGKERELVAAITTGGSTNYADSVKGRFTISRDNAKNTVYLQMNSLKPEDTAVYYCNARHRYHSYTQPRWKYVYWGQGTQVTVSS | low polyreactivity
9 | QVQLVESGGGLVQAGGSLRLSCAASGSIFYPNAMGWYRQAPGKERELVADINTSGGDTYYADSVKGRFTISRDNAKNTVYLQMNSLKPEDTAVYYGAAEGYLYQYTSKPSDYWGQGTQVTVSS | low polyreactivity
10 | QVQLVESGGGLVQAGGSLRLSCAASGSIFYPYAMGWYRPAPGKERELVAGITGGGRTYYADSVKGRFTISRDNAKNTVYLQMNSLKPEDTAVFYCAAVDFVSYYIPFHYEYYWGQGTQVTVSS | low polyreactivity
11 | QVQLVESGGGLVQAGGSLRLSCAASGSIFYPYAMGWYRQAPGKEREFVAAITRSGGSTSYADSVKGRFTISRDNAKNTVYLHMNSLKPEDTAVYYCAAGYWYPDYDGFDYWGQGTQVTVSS | low polyreactivity
12 | QVQLVESGGGLVQAGGSLRLSCAASGSIFYPYAMGWYRQAPGKERELVAAIRRSGTTYYADSVKGRFTISRDNAKNTVYLQMNSLKPEDTAVYYCNKVRGQEPSNYDYWGQGTQVTVSS | low polyreactivity
13 | QVQLVESGGGLVQAGGSLRLSCAASGSIFYPYAMGWYRQAPGKERELVAAISYSGGITYYADSVKGRFTISRDNAKNTVYLQMNSLKPEDTAVYYCNKLIYFKPAGSHDYWGQGTQVTVSS | high polyreactivity
14 | QVQLVESGGGLVQAGGSLRLSCAASGSIFYPYAMGWYRQAPGKERELVAAITWSGGDTYYADSVKGRFTISRDKAKYTDYLQMNSLKPEDTAVYYSAAEWNVSPYDYWGQGTQVTVSS | low polyreactivity
15 | QVQLVESGGGLVQAGGSLRLSCAASGSIFYPYAMGWYRQAPGKERELVADINSDGSTTYADSVKGRFTISRDNAKNTVYLQMNSLKPEDTAVYYCAVDVSVNWPLLERYEYWGQGTQVTVSS | low polyreactivity
16 | QVQLVESGGGLVQAGGSLRLSCAASGSIFYPYAMGWYRQAPGKEREWVATITLSGGRTYYADSVKGRFTISRDNAKNTVYLQMNSLKPEDTAVYYCATDYAYGAFLYDYWGQGTQVTVSS | low polyreactivity

Row | Sequence | polyreactivity (PSR sort gate)
17 | QVQLVESGGGLVQAGGSLRLSCAASGSIFYPYVMGWYRQAPGKERELVAAITTSVGSTYYADSVKGRFTISRDNAKNTVYLQMNSLKPEDTAVYYCAAIYFGSRRPGRYNYWGQGTQVTVSS | high polyreactivity
18 | QVQLVESGGGLVQAGGSLRLSCAASGSIFYQNAMGWYRQAPGKEREFVAAIRSSGSSTYYADSVKGRFTISRDNAKNTVYLQMNSLKPEDTAVYYCAAPSSRGQGRNFDYWGQGTQVTVSS | high polyreactivity
19 | QVQLVESGGGLVQAGGSLRLSCAASGSIFYQYAMGWYRQAPGKEREMLAAIRYSGSSTYYADSVKGRFTISRDNAKNTVYLQMNSLKPEDTEVYYCGKTLRRRRGDRRYRVIEMDHWGQGTQVTVSS | low polyreactivity
20 | QVQLVESGGGLVQAGGSLRLSCAASGSIFYQYAMGWYRQARGKERELVAAITWDGSRTYYADSVKGRFTISRDNAKNTVYLQMNSLKPEDTAVYYCNANLAWRRYDGTYNYWGQGSQVTVSS | high polyreactivity
21 | QVQLVESGGGLVQAGGSLRLSCAASGSIFYQYGMGWYRQAPGKERELVAAITYDDDSTYYADSVKGRFTISRDNAKNTVYLQMNSLKPEDTAVYYCAAYYYKLEYDYWGQGTQVTVSS | high polyreactivity
22 | QVQLVESGGGLVQAGGSLRLSCAASGSIFYRNAMGWYRQAPGKERELVAAISSGTSTYYADSVKGRFTISRDNAKNTVYLQMNSLKPEDTAVYYCAKQYAFVPWWSRYHGELDYWGQGTQVTVSS | low polyreactivity
23 | QVQLVESGGGLVQAGGSLRLSCAASGSIFYRNAMGWYRQAPGKERELVAAISWRGGSTYYADSVKGRFTISRDNAKNTVFLQMNSLKPEDTAVYYCAAAQRVNHVWYDYWGQGTQVTVSS | low polyreactivity
24 | QVQLVESGGGLVQAGGSLRLSCAASGSIFYRNAMGWYRQAPGNERELVAAITSGASTYYADSVKGRFTISRDNAKNTVYLQMNSLKPEDTEVYYCAADSDSQWGMDYWGQGTQVTVSS | low polyreactivity
25 | QVQLVESGGGLVQAGGSLRLSCAASGSIFYRNVMGWYRQAPGKERELVAAISQRGGSTYYADSVKGRFTISRDNAKNTVYLQMNSLKPEDTAVYYCIAASRGAGTSIWSWYDHWGQGTQVTVSS | low polyreactivity
26 | QVQLVESGGGLVQAGGSLRLSCAASGSIFYRNVMGWYRQAPGKERELVAVITGSGDSTFYADSVKGRFTISRDNAKNTVYLQMNSLKPEDTAVYYCNARQVSGGYYYWGQGTQVTVSW | low polyreactivity
27 | QVQLVESGGGLVQAGGSLRLSCAASGSIFYRYAMGWYRQAPGKERELVAAITSTGSRTFYADSVKVRFTISRDNAKNTVYLQMNSLKPEDTAVYYCAADARYNGYHGVDYWGQGTLVTVSS | high polyreactivity
28 | QVQLVESGGGLVQAGGSLRLSCAASGSIFYRYAMGWYRQAPGKESELVAAITQSTDSTYYADSVKGRFTISRDNAKNTVYLQMNSLKPEDTAVYYCAAYLVYYRPYAYGYWGQGTQVTVSS | low polyreactivity
29 | QVQLVESGGGLVQAGGSLRLSCAASGSIFYRYTMGWYRQAPGKERELVAAISSRGGSTYYADSVKGRFTISRDNAKNTVYLQMNSLKPEDTAVYYCAARFSYWAPSKGYGYWGQGTQVTVSS | high polyreactivity
30 | QVQLVESGGGLVQAGGSLRLSCAASGSIFYRYTMGWYRQAPGKERELVAVISRRGGSTYYADSVKGRFTISRDNAKNTVYLQMNSLKPEDTAVYYCAVRQYRTSVRQGNTLWDDYWGQGTQVTVSS | high polyreactivity
31 | QVQLVESGGGLVQAGGSLRLSCAASGSIFYSNAMGWYRQAPGKERELVAAIHWSGGSTYYADSVKGRFTISRDNAKNTFYLLMNSLKPEDTAVYYCAADYGWGPIYDYWGQGTQVNVSS | low polyreactivity

Source: the nanobody polyreactivity screen of Harvey et al. (2022)
